What was measured:
Assay in all cases: holdup assay
Design in all cases: key: below the threshold = too weak to quantify, mostly under pKd 3.1 to 4
LNX1_3, Q8TBB1 = biological target: LNX1_3, Q8TBB1
CARD11, Q9BXL7 = biological target: T1, CARD11, Q9BXL7
T1 sequence (Q9BXL7 662-765, limits assumed, looked up): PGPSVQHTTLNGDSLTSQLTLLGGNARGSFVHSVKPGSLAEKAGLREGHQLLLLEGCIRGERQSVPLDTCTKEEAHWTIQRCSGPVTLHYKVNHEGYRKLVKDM

Inadl_3, Q8NI35 = biological target: Inadl_3, Q8NI35
FRMPD1, Q5SYB0 = biological target: T2, FRMPD1, Q5SYB0
T2 sequence (Q5SYB0 52-145, limits assumed, looked up): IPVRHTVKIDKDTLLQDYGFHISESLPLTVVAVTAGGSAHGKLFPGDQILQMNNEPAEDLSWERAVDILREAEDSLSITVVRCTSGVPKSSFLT

GRID2IP_2, A4D2P6 = biological target: GRID2IP_2, A4D2P6
SNX27, Q96L92 = biological target: SNX27, Q96L92
PDZRN3_1, Q9UPQ7 = biological target: T3, PDZRN3_1, Q9UPQ7
T3 sequence (Q9UPQ7 244-349, limits assumed, looked up): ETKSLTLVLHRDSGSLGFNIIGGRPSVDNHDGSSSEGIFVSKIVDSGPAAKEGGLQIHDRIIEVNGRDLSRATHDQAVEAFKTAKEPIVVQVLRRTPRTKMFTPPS

MAGI1_2, Q96QZ7 = biological target: MAGI1_2, Q96QZ7
GRIP1_4, Q9Y3R0 = biological target: T4, GRIP1_4, Q9Y3R0
T4 sequence (Q9Y3R0 467-571, limits assumed, looked up): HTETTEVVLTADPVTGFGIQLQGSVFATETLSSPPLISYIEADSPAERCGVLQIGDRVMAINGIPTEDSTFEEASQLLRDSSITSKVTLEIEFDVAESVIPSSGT

MAGI2_5, Q86UL8 = biological target: MAGI2_5, Q86UL8
LNX2_3, Q8N448 = biological target: T5, LNX2_3, Q8N448
T5 sequence (Q8N448 463-564, limits assumed, looked up): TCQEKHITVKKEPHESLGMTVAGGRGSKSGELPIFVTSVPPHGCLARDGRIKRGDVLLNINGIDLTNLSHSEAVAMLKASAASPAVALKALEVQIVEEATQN

RAPGEF6, Q8TEU7 = biological target: T6, RAPGEF6, Q8TEU7
T6 sequence (Q8TEU7 525-625, limits assumed, looked up): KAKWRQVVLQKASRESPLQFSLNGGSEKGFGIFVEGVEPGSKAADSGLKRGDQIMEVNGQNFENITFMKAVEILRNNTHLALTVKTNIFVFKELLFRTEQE

PTPN13_1, Q12923 = biological target: T7, PTPN13_1, Q12923
T7 sequence (Q12923 1088-1188, limits assumed, looked up): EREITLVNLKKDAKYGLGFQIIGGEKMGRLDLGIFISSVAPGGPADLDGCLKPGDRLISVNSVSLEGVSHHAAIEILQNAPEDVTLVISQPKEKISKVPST

DVL3, Q92997 = biological target: T8, DVL3, Q92997
T8 sequence (Q92997 244-331, limits assumed, looked up): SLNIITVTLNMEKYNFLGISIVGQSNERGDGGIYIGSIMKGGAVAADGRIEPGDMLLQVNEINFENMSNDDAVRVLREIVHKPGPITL

ARHGEF11, O15085 = biological target: T9, ARHGEF11, O15085
T9 sequence (O15085 42-136, limits assumed, looked up): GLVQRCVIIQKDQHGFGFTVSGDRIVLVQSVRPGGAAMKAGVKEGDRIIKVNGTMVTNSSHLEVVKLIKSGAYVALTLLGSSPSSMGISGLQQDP

NHERF4_2, Q86UT5 = biological target: NHERF4_2, Q86UT5
GORASP1, Q9BQQ3 = biological target: GORASP1, Q9BQQ3
DLG5_1, Q8TDM6 = biological target: DLG5_1, Q8TDM6
GRIP2_6, Q9C0E4 = biological target: GRIP2_6, Q9C0E4
GRIP2_3, Q9C0E4 = biological target: GRIP2_3, Q9C0E4
NOS1, P29475 = biological target: NOS1, P29475
PARD3_3, Q8TEW0 = biological target: PARD3_3, Q8TEW0
LNX2_2, Q8N448 = biological target: T10, LNX2_2, Q8N448
T10 sequence (Q8N448 334-432, limits assumed, looked up): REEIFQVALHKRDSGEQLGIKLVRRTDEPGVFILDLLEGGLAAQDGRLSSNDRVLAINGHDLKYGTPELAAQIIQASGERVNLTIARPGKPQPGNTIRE

HTRA4, P83105 = biological target: T11, HTRA4, P83105
T11 sequence (P83105 378-476, limits assumed, looked up): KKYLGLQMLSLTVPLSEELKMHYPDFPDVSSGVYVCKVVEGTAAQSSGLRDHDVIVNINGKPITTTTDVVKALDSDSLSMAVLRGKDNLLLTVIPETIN

PDZD2_2, O15018 = biological target: T12, PDZD2_2, O15018
T12 sequence (O15018 329-429, limits assumed, looked up): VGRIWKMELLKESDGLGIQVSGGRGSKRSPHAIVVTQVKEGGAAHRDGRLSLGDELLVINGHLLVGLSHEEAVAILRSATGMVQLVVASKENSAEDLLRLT

LIMK2, P53671 = biological target: LIMK2, P53671
[1] = modified: phospho on T at position -2 from the C-terminal residue
[2] = plain residues with an end cap or a label only (N-terminal biotin on a linker: ado-ado)

GRIP2_3, Q9C0E4, sequence (Q9C0E4 238-339): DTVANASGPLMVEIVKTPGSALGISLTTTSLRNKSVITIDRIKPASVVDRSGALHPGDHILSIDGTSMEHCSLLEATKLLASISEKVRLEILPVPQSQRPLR
NOS1, P29475, sequence (P29475 9-101): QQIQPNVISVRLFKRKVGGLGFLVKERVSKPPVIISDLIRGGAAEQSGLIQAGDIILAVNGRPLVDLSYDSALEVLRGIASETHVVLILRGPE
DLG5_1, Q8TDM6, sequence (Q8TDM6 617-713): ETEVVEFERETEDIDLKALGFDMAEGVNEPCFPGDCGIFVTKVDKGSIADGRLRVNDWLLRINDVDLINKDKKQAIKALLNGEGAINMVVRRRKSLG
PARD3_3, Q8TEW0, sequence (Q8TEW0 582-685): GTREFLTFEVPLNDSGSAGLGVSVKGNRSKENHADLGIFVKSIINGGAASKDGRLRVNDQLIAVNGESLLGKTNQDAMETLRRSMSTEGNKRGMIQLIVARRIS
MAGI2_5, Q86UL8, sequence (Q86UL8 915-1017): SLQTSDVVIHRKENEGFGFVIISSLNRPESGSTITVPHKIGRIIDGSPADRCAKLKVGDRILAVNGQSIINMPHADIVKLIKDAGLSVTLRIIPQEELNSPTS
LNX1_3, Q8TBB1, sequence (Q8TBB1 500-596): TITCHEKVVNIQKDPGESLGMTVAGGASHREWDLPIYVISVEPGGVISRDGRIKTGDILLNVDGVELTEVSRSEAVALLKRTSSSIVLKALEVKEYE
MAGI1_2, Q96QZ7, sequence (Q96QZ7 456-580): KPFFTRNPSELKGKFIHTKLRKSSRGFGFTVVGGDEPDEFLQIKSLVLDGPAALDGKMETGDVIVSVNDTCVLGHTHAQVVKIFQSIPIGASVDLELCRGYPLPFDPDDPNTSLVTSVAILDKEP
GRID2IP_2, A4D2P6, sequence (A4D2P6 272-370): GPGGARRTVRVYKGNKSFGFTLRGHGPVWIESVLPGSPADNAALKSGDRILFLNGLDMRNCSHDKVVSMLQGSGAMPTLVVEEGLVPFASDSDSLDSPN
GORASP1, Q9BQQ3, sequence (Q9BQQ3 1-208): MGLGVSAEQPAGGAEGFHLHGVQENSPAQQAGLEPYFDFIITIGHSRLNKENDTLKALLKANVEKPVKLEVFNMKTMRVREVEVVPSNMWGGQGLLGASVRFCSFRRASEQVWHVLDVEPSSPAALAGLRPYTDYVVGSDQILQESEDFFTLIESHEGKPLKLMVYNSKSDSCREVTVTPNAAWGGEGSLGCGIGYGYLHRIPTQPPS
LIMK2, P53671, sequence (P53671 143-248): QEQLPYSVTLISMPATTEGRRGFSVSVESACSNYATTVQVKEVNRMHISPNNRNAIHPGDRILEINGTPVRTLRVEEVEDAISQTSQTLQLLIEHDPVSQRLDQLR
Inadl_3, Q8NI35, sequence (Q8NI35 359-469): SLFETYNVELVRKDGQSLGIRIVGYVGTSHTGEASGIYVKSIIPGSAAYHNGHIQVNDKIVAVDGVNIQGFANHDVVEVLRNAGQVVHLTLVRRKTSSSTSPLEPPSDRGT
NHERF4_2, Q86UT5, sequence (Q86UT5 220-308): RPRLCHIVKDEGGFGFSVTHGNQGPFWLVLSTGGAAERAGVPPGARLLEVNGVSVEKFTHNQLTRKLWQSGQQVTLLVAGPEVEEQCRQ
GRIP2_6, Q9C0E4, sequence (Q9C0E4 648-740): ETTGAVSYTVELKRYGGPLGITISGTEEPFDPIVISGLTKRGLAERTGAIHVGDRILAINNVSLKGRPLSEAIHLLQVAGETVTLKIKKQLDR

With SSRTRRETQL [HPV16-E6_-2P, P03126] the pKd (LNX1_3, Q8TBB1; [1]) was “below the threshold”, the pKd (CARD11, Q9BXL7; [1]) was “below the threshold” and the pKd (Inadl_3, Q8NI35; [1]) was “below the threshold”. The pKd (FRMPD1, Q5SYB0; [1]) was “below the threshold”, the pKd (GRID2IP_2, A4D2P6; [1]) was “below the threshold” and the pKd (SNX27, Q96L92; [1]) was “below the threshold”. The pKd (PDZRN3_1, Q9UPQ7; [1]) was “below the threshold”, the pKd (MAGI1_2, Q96QZ7; [1]) was “below the threshold” and the pKd (GRIP1_4, Q9Y3R0; [1]) was “below the threshold”. For the same binder, the pKd (MAGI2_5, Q86UL8; [1]) was “below the threshold”, the pKd (LNX2_3, Q8N448; [1]) was “below the threshold” and the pKd (RAPGEF6, Q8TEU7; [1]) was “below the threshold”. The pKd (PTPN13_1, Q12923; [1]) was “below the threshold”, the pKd (DVL3, Q92997; [1]) was “below the threshold” and the pKd (ARHGEF11, O15085; [1]) was “below the threshold”. For the same binder, the pKd (NHERF4_2, Q86UT5; [1]) was “below the threshold”, the pKd (GORASP1, Q9BQQ3; [1]) was “below the threshold” and the pKd (DLG5_1, Q8TDM6; [1]) was “below the threshold”. For the same binder, the pKd (GRIP2_6, Q9C0E4; [1]) was “below the threshold”, the pKd (GRIP2_3, Q9C0E4; [1]) was “below the threshold” and the pKd (NOS1, P29475; [1]) was 3.63. For the same binder, the pKd (PARD3_3, Q8TEW0; [1]) was “below the threshold”, the pKd (LNX2_2, Q8N448; [1]) was “below the threshold” and the pKd (HTRA4, P83105; [1]) was “below the threshold”. For the same binder, the pKd (PDZD2_2, O15018; [1]) was “below the threshold” and the pKd (LIMK2, P53671; [1]) was “below the threshold”.

For AQRARSPSDV [GPR12, P47775], the pKd (LNX1_3, Q8TBB1; [2]) was “below the threshold”, the pKd (CARD11, Q9BXL7; [2]) was “below the threshold” and the pKd (Inadl_3, Q8NI35; [2]) was “below the threshold”. For the same binder, the pKd (FRMPD1, Q5SYB0; [2]) was “below the threshold”, the pKd (GRID2IP_2, A4D2P6; [2]) was “below the threshold” and the pKd (SNX27, Q96L92; [2]) was “below the threshold”. The pKd (PDZRN3_1, Q9UPQ7; [2]) was “below the threshold”, the pKd (MAGI1_2, Q96QZ7; [2]) was “below the threshold” and the pKd (GRIP1_4, Q9Y3R0; [2]) was “below the threshold”. The pKd (MAGI2_5, Q86UL8; [2]) was “below the threshold”, the pKd (LNX2_3, Q8N448; [2]) was “below the threshold” and the pKd (RAPGEF6, Q8TEU7; [2]) was “below the threshold”. For the same binder, the pKd (PTPN13_1, Q12923; [2]) was “below the threshold”, the pKd (DVL3, Q92997; [2]) was “below the threshold” and the pKd (ARHGEF11, O15085; [2]) was “below the threshold”. For the same binder, the pKd (NHERF4_2, Q86UT5; [2]) was “below the threshold”, the pKd (GORASP1, Q9BQQ3; [2]) was “below the threshold” and the pKd (DLG5_1, Q8TDM6; [2]) was “below the threshold”. The pKd (GRIP2_6, Q9C0E4; [2]) was “below the threshold”, the pKd (GRIP2_3, Q9C0E4; [2]) was “below the threshold” and the pKd (NOS1, P29475; [2]) was 3.75. For the same binder, the pKd (PARD3_3, Q8TEW0; [2]) was “below the threshold”, the pKd (LNX2_2, Q8N448; [2]) was 3.57 and the pKd (HTRA4, P83105; [2]) was “below the threshold”. For the same binder, the pKd (PDZD2_2, O15018; [2]) was 4.71 and the pKd (LIMK2, P53671; [2]) was “below the threshold”.

With RQKEVRESKC [SCN8A, Q9UQD0] the pKd (LNX1_3, Q8TBB1; [2]) was “below the threshold”, the pKd (CARD11, Q9BXL7; [2]) was “below the threshold” and the pKd (Inadl_3, Q8NI35; [2]) was “below the threshold”. For the same binder, the pKd (FRMPD1, Q5SYB0; [2]) was “below the threshold”, the pKd (GRID2IP_2, A4D2P6; [2]) was 3.69 and the pKd (SNX27, Q96L92; [2]) was 5.19. For the same binder, the pKd (PDZRN3_1, Q9UPQ7; [2]) was 4.02, the pKd (MAGI1_2, Q96QZ7; [2]) was 3.67 and the pKd (GRIP1_4, Q9Y3R0; [2]) was “below the threshold”. The pKd (MAGI2_5, Q86UL8; [2]) was 3.61, the pKd (LNX2_3, Q8N448; [2]) was “below the threshold” and the pKd (RAPGEF6, Q8TEU7; [2]) was “below the threshold”. For the same binder, the pKd (PTPN13_1, Q12923; [2]) was “below the threshold”, the pKd (DVL3, Q92997; [2]) was “below the threshold” and the pKd (ARHGEF11, O15085; [2]) was “below the threshold”. For the same binder, the pKd (NHERF4_2, Q86UT5; [2]) was “below the threshold”, the pKd (GORASP1, Q9BQQ3; [2]) was “below the threshold” and the pKd (DLG5_1, Q8TDM6; [2]) was “below the threshold”. The pKd (GRIP2_6, Q9C0E4; [2]) was “below the threshold”, the pKd (GRIP2_3, Q9C0E4; [2]) was “below the threshold” and the pKd (NOS1, P29475; [2]) was “below the threshold”. For the same binder, the pKd (PARD3_3, Q8TEW0; [2]) was “below the threshold”, the pKd (LNX2_2, Q8N448; [2]) was “below the threshold” and the pKd (HTRA4, P83105; [2]) was “below the threshold”. For the same binder, the pKd (PDZD2_2, O15018; [2]) was 3.94 and the pKd (LIMK2, P53671; [2]) was “below the threshold”.

EDGESWEYQI [TRPV6, Q9H1D0] was tested, and the pKd (LNX1_3, Q8TBB1; [2]) was 3.52, the pKd (CARD11, Q9BXL7; [2]) was “below the threshold” and the pKd (Inadl_3, Q8NI35; [2]) was 5.33. For the same binder, the pKd (FRMPD1, Q5SYB0; [2]) was “below the threshold”, the pKd (GRID2IP_2, A4D2P6; [2]) was “below the threshold” and the pKd (SNX27, Q96L92; [2]) was “below the threshold”. The pKd (PDZRN3_1, Q9UPQ7; [2]) was “below the threshold”, the pKd (MAGI1_2, Q96QZ7; [2]) was “below the threshold” and the pKd (GRIP1_4, Q9Y3R0; [2]) was “below the threshold”. The pKd (MAGI2_5, Q86UL8; [2]) was “below the threshold”, the pKd (LNX2_3, Q8N448; [2]) was “below the threshold” and the pKd (RAPGEF6, Q8TEU7; [2]) was “below the threshold”. The pKd (PTPN13_1, Q12923; [2]) was “below the threshold”, the pKd (DVL3, Q92997; [2]) was “below the threshold” and the pKd (ARHGEF11, O15085; [2]) was 3.63. The pKd (NHERF4_2, Q86UT5; [2]) was “below the threshold”, the pKd (GORASP1, Q9BQQ3; [2]) was 4.63 and the pKd (DLG5_1, Q8TDM6; [2]) was “below the threshold”. For the same binder, the pKd (GRIP2_6, Q9C0E4; [2]) was 3.8, the pKd (GRIP2_3, Q9C0E4; [2]) was “below the threshold” and the pKd (NOS1, P29475; [2]) was “below the threshold”. For the same binder, the pKd (PARD3_3, Q8TEW0; [2]) was 5.35, the pKd (LNX2_2, Q8N448; [2]) was “below the threshold” and the pKd (HTRA4, P83105; [2]) was “below the threshold”. For the same binder, the pKd (PDZD2_2, O15018; [2]) was 4.66 and the pKd (LIMK2, P53671; [2]) was “below the threshold”.

— publication PMC9482650, “Quantitative fragmentomics allow affinity mapping of interactomes” (Nature Communications, 2022)
